Data: patent US20190135872A1
pKd: −log10 of the molar value.

Columns and labels:
[1] = biological target: BG505 NFL-TD+CC2-D4K_L555P w/rEK (HIV-1 BG505 (clade A)); assay: ELISA, His-captured trimer
[2] = biological target: 16055 NFL-TD+CC2-D4K_L555P w/rEK (HIV-1 16055 (clade C)); assay: ELISA, His-captured trimer
[3] = biological target: 16055 NFL-Q563P (HIV-1 16055 (clade C)); assay: ELISA, His-captured trimer
[4] = biological target: 16055 NFL-L555P (HIV-1 16055 (clade C)); assay: ELISA, His-captured trimer
[5] = biological target: BG505 NFL-TD+CC2-D4K_I559P (HIV-1 BG505 (clade A)); assay: ELISA, His-captured trimer
[6] = biological target: JRFL NFL-CC2 (HIV-1 JRFL (clade B)); assay: ELISA, His-captured trimer
[7] = biological target: BG505 NFL-CC2 (HIV-1 BG505 (clade A)); assay: ELISA, His-captured trimer
[8] = biological target: BG505 NFL-L555P (HIV-1 BG505 (clade A)); assay: ELISA, His-captured trimer
[9] = biological target: 16055 NFL (I559P) parental (HIV-1 16055 (clade C)); assay: ELISA, His-captured trimer
[10] = biological target: 16055 NFL-CC2 (HIV-1 16055 (clade C)); assay: ELISA, His-captured trimer
[11] = biological target: BG505 NFL (I559P) parental (HIV-1 BG505 (clade A)); assay: ELISA, His-captured trimer
[12] = biological target: BG505 NFL-TD+CC2-D4K_L555P (HIV-1 BG505 (clade A)); assay: ELISA, His-captured trimer
[13] = biological target: BG505 NFL-TD+CC2-D4K_I559P w/rEK (HIV-1 BG505 (clade A)); assay: ELISA, His-captured trimer
[14] = biological target: 16055 NFL-TD+CC2-D4K_I559P w/rEK (HIV-1 16055 (clade C)); assay: ELISA, His-captured trimer
[15] = biological target: 16055 NFL-TD+CC2-D4K_L555P (HIV-1 16055 (clade C)); assay: ELISA, His-captured trimer
[16] = biological target: 16055 NFL-TD+CC2-D4K_I559P (HIV-1 16055 (clade C)); assay: ELISA, His-captured trimer
[17] = biological target: BG505 NFL-TD+CC2-D4K_I559P (HIV-1 BG505 (clade A)); assay: BLI, IgG captured, trimer as analyte
[18] = biological target: BG505 NFL-CC2 (HIV-1 BG505 (clade A)); assay: BLI, IgG captured, trimer as analyte
[19] = biological target: 16055 NFL-CC2 (HIV-1 16055 (clade C)); assay: BLI, IgG captured, trimer as analyte
[20] = biological target: BG505 NFL-TD+CC2-D4K_L555P (HIV-1 BG505 (clade A)); assay: BLI, IgG captured, trimer as analyte
[21] = biological target: 16055 NFL-TD+CC2-D4K_L555P (HIV-1 16055 (clade C)); assay: BLI, IgG captured, trimer as analyte
[22] = biological target: 16055 NFL-TD+CC2-D4K_I559P (HIV-1 16055 (clade C)); assay: BLI, IgG captured, trimer as analyte

For VRC01 (antibody), the EC50 [1] was 0.069 µg/mL, the EC50 [2] was 0.178 µg/mL and the EC50 [3] was 0.294 µg/mL. For the same substance, the EC50 [4] was 0.178 µg/mL, the EC50 [5] was 0.042 µg/mL and the EC50 [6] was 0.032 µg/mL. The EC50 [7] was 0.059 µg/mL, the EC50 [8] was 0.07 µg/mL and the EC50 [9] was 0.055 µg/mL. It also gave an EC50 [10] of 0.021 µg/mL, an EC50 [11] of 0.05 µg/mL and an EC50 [12] of 0.051 µg/mL. For the same substance, the EC50 [13] was 0.066 µg/mL, the EC50 [14] was 0.208 µg/mL and the EC50 [15] was 0.067 µg/mL. It also gave an EC50 [16] of 0.059 µg/mL.

With VRC34 (antibody) the EC50 [1] was 0.035 µg/mL, the EC50 [2] was 0.032 µg/mL and the EC50 [5] was 0.072 µg/mL. It also gave an EC50 [6] of 1.01 µg/mL, an EC50 [7] of 0.457 µg/mL and an EC50 [8] of 0.017 µg/mL. For the same substance, the EC50 [9] was 0.692 µg/mL, the EC50 [10] was 0.434 µg/mL and the EC50 [11] was 0.464 µg/mL. For the same substance, the EC50 [12] was 2.43 µg/mL, the EC50 [13] was 0.037 µg/mL and the EC50 [14] was 0.034 µg/mL. The pKd [17] was 7.92, the koff [17] was 0.0005 s⁻¹ and the kon [17] was 43000 M⁻¹ s⁻¹. It also gave a pKd [18] of 8.89, a koff [18] of 4e-05 s⁻¹ and a kon [18] of 27000 M⁻¹ s⁻¹. The pKd [19] was 7.20, the koff [19] was 0.0027 s⁻¹ and the kon [19] was 43000 M⁻¹ s⁻¹. The pKd [20] was 7.36, the koff [20] was 0.002 s⁻¹ and the kon [20] was 44000 M⁻¹ s⁻¹. The pKd [21] was 7.12, the koff [21] was 0.0038 s⁻¹ and the kon [21] was 50000 M⁻¹ s⁻¹. It also gave a pKd [22] of 7.04, a koff [22] of 0.0038 s⁻¹ and a kon [22] of 41000 M⁻¹ s⁻¹.
